Experimental data as given in patent US20200199244A1 (published 2020).
Positions count from the first letter of the chain named. Values joined by “and” are separate entries in the source; they are usually repeats but may differ in a detail not shown here. Equal entries are not always repeated.

Legend:
[1] = biological target: human CD40 on RAMOS human B cells (human, UniProt P25942 21-277); assay: cell-based or functional assay
[2] = biological target: T1, human CD40 expressed on stably transfected CHO-DG44 cells (human, UniProt P25942 21-277); assay: CHO-CD40 cell RBA, competition with IZ-CD40L (FMAT)
T1 construct: Cell-surface human CD40 in the CHO cell RBA; also called CHO-CD40; human CD40 CHO cells
Procedure: The mixture was incubated in the absence of light for 6 hours.

[3] = biological target: T2, human CD40 (BMS, CY24FEB06-01) (human, UniProt P25942 21-193); assay: ELISA RBA, competition with IZ-CD40L for soluble human CD40;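 also: Neutravidin-coated 384-well plates, dAb–human CD40 complex incubated 2 h at room temperature, read-out as absorbance at 450 nm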
T2 construct: Soluble human CD40 reagent of the ELISA RBA

[4] = biological target: T3, human CD40 (W109L, L121P) Fc fusion (human, UniProt P25942 21-193); assay: SPR, ProteOn XPR36; CD40-Fc captured, dAb analyte
T3 construct: Same construct as wt-hCD40 with W109L and L121P; also called hCD40-M4; hCD40 M4 (W109L, L121P); not shown: human IgG1 Fc

[5] = biological target: T4, human CD40 (H76R, W109L, L121P) Fc fusion (human); assay: SPR, ProteOn XPR36; CD40-Fc captured, dAb analyte
T4 construct: Same construct as wt-hCD40 with H76R, W109L and L121P; also called hCD40-M5; hCD40-M5 (H76R, W109L, L121P); not shown: human IgG1 Fc
T4 chain: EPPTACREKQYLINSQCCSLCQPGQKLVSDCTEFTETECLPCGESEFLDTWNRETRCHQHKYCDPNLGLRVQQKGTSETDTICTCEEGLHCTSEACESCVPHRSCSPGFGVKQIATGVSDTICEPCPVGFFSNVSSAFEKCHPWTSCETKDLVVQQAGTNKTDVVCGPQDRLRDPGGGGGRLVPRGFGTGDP

[6] = biological target: T5, wild type cynomolgus monkey CD40 Fc fusion (cynomolgus monkey (Macaca …)); assay: SPR, ProteOn XPR36; CD40-Fc captured, dAb analyte
T5 construct: also called wt-cCD40; wt-cyno-CD40; not shown: human IgG1 Fc
T5 chain: T4 chain with A95S, S106L, H142R, L172Q

[7] = biological target: T6, human CD40 (human, UniProt P25942 21-277); assay: CHO-CD40 cell RBA: competition with biotinylated human IZ-CD40L for human CD40 on CHO cells, fluorescence (FMAT); 0.1% BSA
T6 construct: Native on primary human tonsillar B cells, monocyte-derived dendritic cells and RAMOS cells; stably transfected on CHO-DG44 cells; also called hCD40

[8] = biological target: T6, human CD40; assay: CHO-CD40 cell RBA: competition with biotinylated human IZ-CD40L for human CD40 on CHO cells, fluorescence (FMAT); 50 µM HSA
[9] = biological target: T7, cynomolgus serum albumin (cynomolgus, UniProt A2V9Z4 25-608); assay: SPR (BIAcore 3000), CSA amine-coupled on CM5 chip, ILF as analyte, 1:1 Langmuir fit, 25 C
T7 construct: Amine-coupled to a CM5 BIAcore chip; also called CSA; Cyno Serum Albumin
Source text: (§1) A BIAcore™ 3000 instrument (GE Healthcare) was used to analyze the binding kinetics of anti-CD40-AlbudAb ILFs to human and cynomolgus serum albumin. Approximately 400 response units (RU) of human serum albumin (HSA) or cynomolgus serum albumin (CSA) were immobilized on a flow-cell of a CM5 BIAcore™ chip using an Amine Coupling Kit (GE Healthcare). A second flow cell without any ligand immobilized served as a reference flow-cell for inline referencing. An appropriate doubling dilution series of each dAb to be analyzed was prepared in HBS-EP buffer (0.01 M HEPES pH 7.4 with 0.15 M NaCl, 3 mM EDTA and 0.005% v/v Surfactant P20, GE Healthcare). Two hundred microlitres of each ILF were injected in duplicate using the instrument's KINJECT function. The injections were made across the serum albumin-immobilized and reference flow-cells in series, with inline subtraction of the signal from the reference cell. The experiment was performed at 25° C. and a flow rate of 40 μl/min of HBS-EP. After each injection had been completed, the dAb was allowed to dissociate from the ligand in buffer for 120 s before regeneration with a 10 μl injection of 10 mM glycine pH 2.0. A reference injection of HBS-EP buffer blank (containing no analyte) was also injected under the same conditions to serve as a second reference for subtraction from each analyte trace. BIAevaluation 4.1 software (GE Healthcare) was used to subtract both the reference flow-cell trace and the buffer blank trace from each analyte trace.
(§2) The same software was used to perform a simultaneous, global fit of a 1:1 (Langmuir) kinetic model to the association and dissociation phases of the analyte dilution series traces. This model yielded association and dissociation rate constants (kₐ and kd, respectively) and the equilibrium dissociation constant (KD) of the interaction.

[10] = biological target: T8, human serum albumin (human, UniProt P02768 25-609); assay: SPR (BIAcore 3000), HSA amine-coupled on CM5 chip, ILF as analyte, 1:1 Langmuir fit, 25 C
T8 construct: Amine-coupled to a CM5 BIAcore chip; also called HSA
Source text: as §1, §2

[11] = biological target: T9, wild type human CD40 Fc fusion (human, UniProt P25942 21-193); assay: SPR, ProteOn XPR36; CD40-Fc captured, dAb analyte; 1:1 fit;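 as to Kd: CD40-Fc captured on anti-human IgG(Fc) surface of a GLC chip, buffer pH 7.1, sensorgrams double-referenced against surfaces without CD40-Fc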;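 as to koff: CD40-Fc captured on anti-human IgG(Fc) surface of a GLC chip, buffer pH 7.1, sensorgrams double-referenced against surfaces without CD40-Fc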;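 as to kon: CD40-Fc captured on anti-human IgG(Fc) surface of a GLC chip, buffer pH 7.1, sensorgrams double-referenced against surfaces without CD40-Fc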
T9 construct: also called wt-hCD40; not shown: human IgG1 Fc

[12] = biological target: T10, human CD40 (H76R) Fc fusion (human, UniProt P25942 21-193); assay: as above
T10 construct: also called hCD40-M1; hCD40 M1 (H76R); not shown: human IgG1 Fc

[13] = biological target: T11, human CD40 (W109L) Fc fusion (human, UniProt P25942 21-193); assay: as above
T11 construct: Same construct as wt-hCD40 with W109L; also called hCD40-M2; hCD40 M2 (W109L); not shown: human IgG1 Fc

[14] = biological target: T12, human CD40 (W109R) Fc fusion (Chimpanzee CD40) (human, UniProt P25942 21-193); assay: as above
T12 construct: Same construct as wt-hCD40 with W109R (the residue of chimpanzee CD40); also called hCD40-M3; hCD40 M3 (W109R); not shown: human IgG1 Fc

[15] = biological target: T3, human CD40 (W109L, L121P) Fc fusion; assay: as above
[16] = biological target: T4, human CD40 (H76R, W109L, L121P) Fc …; assay: as above
[17] = biological target: T5, wild type cynomolgus monkey CD40 Fc …; assay: as above
[18] = biological target: T9, wild type human CD40 Fc fusion; assay: SPR, ProteOn XPR36; CD40-Fc captured, dAb analyte; 1:1 fit; repeat
Procedure: Assays were performed on a BioRad ProteOn XPR36 SPR instrument. The SPR surfaces were prepared by immobilizing 8 μg/ml anti-human IgG(Fc) antibody (Biacore/GE Healthcare) in 10 mM sodium acetate pH 4.5 on a BioRad GLC sensor chip using standard ethyl(dimethylaminopropyl) carbodiimide (EDC)/N-hydroxysuccinimide (NHS) chemistry, with ethanolamine blocking. The running buffer for immobilization and kinetic binding analysis was 10 mM sodium phosphate, 130 mM sodium chloride, 0.05% tween 20, pH 7.1. CD40-Fc fusion proteins at concentrations of 20 μg/ml were captured in the vertical orientation on these surfaces via the Fc tail, and reference surfaces lacking CD40-Fc proteins were used for reference subtraction. […] The surfaces were regenerated in both horizontal and vertical orientations with 30 s pulses of 3 M MgCl₂ followed by running buffer at 60 μl/min. Sensogram data was double-referenced and then fitted to a 1:1 Langmuir model using BioRad ProteOn Manager V.2.1.0.38 software, to determine the association rate constant (ka), the dissociation rate constant (kd), and the equilibrium dissociation constant (KD).

T8 sequence (P02768 25-609 limits assumed): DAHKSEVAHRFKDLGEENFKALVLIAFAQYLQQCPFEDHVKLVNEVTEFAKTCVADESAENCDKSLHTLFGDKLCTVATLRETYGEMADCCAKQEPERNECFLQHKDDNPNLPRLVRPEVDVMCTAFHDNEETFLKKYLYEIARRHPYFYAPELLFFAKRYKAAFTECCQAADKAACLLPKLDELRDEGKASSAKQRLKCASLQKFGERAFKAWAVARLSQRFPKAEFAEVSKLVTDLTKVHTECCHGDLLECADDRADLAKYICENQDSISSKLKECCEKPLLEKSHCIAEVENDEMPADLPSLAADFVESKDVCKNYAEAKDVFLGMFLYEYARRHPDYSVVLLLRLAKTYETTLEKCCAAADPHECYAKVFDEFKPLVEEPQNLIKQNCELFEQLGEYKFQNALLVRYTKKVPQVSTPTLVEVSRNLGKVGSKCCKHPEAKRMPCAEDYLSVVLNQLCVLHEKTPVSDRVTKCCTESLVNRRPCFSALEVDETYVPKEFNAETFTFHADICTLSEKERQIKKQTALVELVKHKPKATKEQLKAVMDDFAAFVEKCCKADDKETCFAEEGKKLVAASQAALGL
T7 sequence (A2V9Z4 25-608 limits assumed): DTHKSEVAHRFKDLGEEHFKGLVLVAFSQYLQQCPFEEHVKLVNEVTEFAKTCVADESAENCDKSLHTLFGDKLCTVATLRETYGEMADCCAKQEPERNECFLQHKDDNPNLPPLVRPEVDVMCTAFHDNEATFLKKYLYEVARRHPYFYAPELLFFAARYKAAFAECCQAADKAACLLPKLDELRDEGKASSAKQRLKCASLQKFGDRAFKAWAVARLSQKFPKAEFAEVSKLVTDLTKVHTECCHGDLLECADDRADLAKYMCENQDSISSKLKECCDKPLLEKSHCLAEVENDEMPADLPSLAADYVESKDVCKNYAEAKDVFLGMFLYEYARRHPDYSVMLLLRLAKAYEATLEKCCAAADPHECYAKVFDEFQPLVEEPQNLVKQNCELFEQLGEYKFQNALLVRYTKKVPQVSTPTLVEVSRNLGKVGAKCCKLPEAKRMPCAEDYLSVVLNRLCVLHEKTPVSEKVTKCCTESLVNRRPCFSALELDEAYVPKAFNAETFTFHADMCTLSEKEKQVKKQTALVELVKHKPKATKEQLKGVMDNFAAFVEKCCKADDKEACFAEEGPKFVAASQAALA

B1: BMS3h-56-262 (other)
VH: EVQLLESGGGLVQPGGSLRLSCAASGFTFRDYEMWWVRQAPGKGLERVSAINPQGTRTYYADSVKGRFTISRDNSKNTLYLQMNSLRAEDTAVYYCAKLPQLFHDRGQGTLVTVSS
notes: domain antibody (dAb): single human VH domain
With B1 the “EC50 ICAM1 cell assay” value [1] was 135 nM, the EC50 [2] was 42 nM and the EC50 [3] was 4 nM.

B2: BMS3h-56-1 (other)
VH: B1 VH with Q101F, L102T, H104E, R106W
notes: Anti-human CD40 domain antibody (dAb), single VH domain
B2: no binding (tested: dAb tested up to 405 nM) [4]; no binding (tested: dAb tested up to 405 nM) [5]; no binding (tested: dAb tested up to 405 nM) [6].

B3: BMS3h-56-261 (other)
VH: B1 VH with Q101F, L102F, H104Q, D105E, R106W
notes: as for B1
B3 was tested, and the “EC50 ICAM1 cell assay” value [1] was 42.4 nM, the EC50 [2] was 17 nM and the EC50 [3] was 5.7 nM.

B4: BMS3h-56-265 (other)
VH: B1 VH with H104Q, R106W
notes: as for B1
In the case of B4, the “EC50 ICAM1 cell assay” value [1] is reported as 289 nM, the EC50 [2] is reported as 88 nM and the EC50 [3] is reported as 18.8 nM.

B5: BMS3h-56-258 (other)
VH: B1 VH with Q101F, L102Y, D105E, R106W
notes: as for B1
For B5, the “EC50 ICAM1 cell assay” value [1] was 23 nM, the EC50 [2] was 15 nM and the EC50 [3] was 5.2 nM.

B6: BMS3h-56-2 (other)
VH: B1 VH with Q101F, L102T, H104D, R106W
notes: as for B2
B6: no binding (tested: dAb tested up to 405 nM) [4]; no binding (tested: dAb tested up to 405 nM) [5].

B7: BMS3h-56-270 (other)
VH: B1 VH with Q101T, H104Q, R106W
notes: as for B1
For B7, the “EC50 ICAM1 cell assay” value [1] was 93.8 nM, the EC50 [2] was 91 nM and the EC50 [3] was 11.3 nM.

B8: BMS3h-56-266 (other)
VH: B1 VH with Q101F, L102F, D105E, R106W
notes: as for B1
In the case of B8, the “EC50 ICAM1 cell assay” value [1] is reported as 31.9 nM, the EC50 [2] is reported as 27 nM and the EC50 [3] is reported as 3.8 nM.

B9: BMS3h-56-269 (other)
VH: B1 VH with Q101F, L102R, H104S
notes: as for B1
With B9 the “EC50 ICAM1 cell assay” value [1] was 34.2 nM, the EC50 [2] was 24 nM and the EC50 [3] was 3.3 nM.

B10: DMS0654 BMS3h-56-201-AST-DOM7h-11-3 (bispecific antibody)
chain: EVQLLESGGGLVQPGGSLRLSCAASGFTFRDYEMWWVRQAPGKGLERVSAINPQGTRTYYADSVKGRFTISRDNSKNTLYLQMNSLRAEDTAVYYCAKLPFYFQEWGQGTLVTVSSASTDIQMTQSPSSLSASVGDRVTITCRASRPIGTTLSWYQQKPGKAPKLLILWNSRLQSGVPSRFSGSGSGTDFTLTISSLQPEDFATYYCAQAGTHPTTFGQGTKVEIKR
notes: AlbudAb inline fusion (ILF): an anti-CD40 dAb and an anti-serum-albumin dAb joined by a linker in one polypeptide
Binder B10 has an EC50 [7] of 15 nM and an EC50 [8] of 8.6 nM.

B11: DMS0656 BMS3h-56-258-AST-DOM7h-11-3 (bispecific antibody)
chain: B10 chain with Q104H
notes: as for B10
B11 gave an EC50 [7] of 11.8 nM and an EC50 [8] of 26.8 nM.

B12: DMS0657 BMS3h-56-258-AST-DOM7h-11-87 (bispecific antibody)
chain: B10 chain with Q104H, T151M, W169A, N170F, P214H
notes: as for B10
With B12 the EC50 [7] was 6.8 nM and the EC50 [8] was 16.6 nM.

B13: DMS0655 BMS3h-56-201-AST-DOM7h-11-87 (bispecific antibody)
chain: B10 chain with T151M, W169A, N170F, P214H
notes: as for B10
In the case of B13, the EC50 [7] is reported as 6.3 nM and the EC50 [8] is reported as 2.7 nM.

B14: DMS0659 DOM7h-11-87-TVAAPS-BMS3h-56-201 (bispecific antibody)
chain: DIQMTQSPSSLSASVGDRVTITCRASRPIGTMLSWYQQKPGKAPKLLILAFSRLQSGVPSRFSGSGSGTDFTLTISSLQPEDFATYYCAQAGTHHTTFGQGTKVEIKRTVAAPSEVQLLESGGGLVQPGGSLRLSCAASGFTFRDYEMWWVRQAPGKGLERVSAINPQGTRTYYADSVKGRFTISRDNSKNTLYLQMNSLRAEDTAVYYCAKLPFYFQEWGQGTLVTVSS
notes: as for B10
For B14, the koff [9] was 0.00237 s⁻¹ and 0.00337 s⁻¹ and 0.0024 s⁻¹, the koff [10] was 0.00117 s⁻¹ and 0.00169 s⁻¹ and 0.0012 s⁻¹ and the EC50 [7] was 7.2 nM. It also gave an EC50 [8] of 3.3 nM.

B15: DMS0658 DOM7h-11-3-TVAAPS-BMS3h-56-201 (bispecific antibody)
chain: B14 chain with M32T, A50W, F51N, H95P
notes: as for B10
With B15 the EC50 [7] was 12.2 nM and the EC50 [8] was 9.1 nM.

B16: DMS0661 DOM7h-11-87-TVAAPS-BMS3h-56-258 (bispecific antibody)
chain: B14 chain with Q218H
notes: as for B10
B16 gave an EC50 [7] of 4.1 nM and an EC50 [8] of 5.7 nM.

B17: DMS0660 DOM7h-11-3-TVAAPS-BMS3h-56-258 (bispecific antibody)
chain: B14 chain with M32T, A50W, F51N, H95P, Q218H
notes: as for B10
B17 gave an EC50 [7] of 21.8 nM and an EC50 [8] of 13.1 nM.

B18: BMS3h-217-5 (other)
VL: DIQMTQSPSFLSASVGDRVTITCRASHFIATLLSWYQQKPGKAPKLLITYGSLLQSGVPSRFSGSGSGTDFTLTISSLQPEDFATYYCGQGVLWPPTFGQGTKVEIKR
notes: Anti-human CD40 domain antibody (dAb), single V kappa domain
Binder B18 has a Kd [11] of 0.47 nM, a koff [11] of 0.00127 s⁻¹ and a kon [11] of 2.71e+06 M⁻¹ s⁻¹. For the same binder, the Kd [12] was 0.94 nM, the koff [12] was 0.00299 s⁻¹ and the kon [12] was 3.17e+06 M⁻¹ s⁻¹. For the same binder, the Kd [13] was 0.99 nM, the koff [13] was 0.00251 s⁻¹ and the kon [13] was 2.55e+06 M⁻¹ s⁻¹. It also gave a Kd [14] of 0.72 nM, a koff [14] of 0.00196 s⁻¹ and a kon [14] of 2.73e+06 M⁻¹ s⁻¹. For the same binder, the Kd [15] was 0.93 nM, the koff [15] was 0.00259 s⁻¹ and the kon [15] was 2.78e+06 M⁻¹ s⁻¹. For the same binder, the Kd [16] was 0.99 nM, the koff [16] was 0.00242 s⁻¹ and the kon [16] was 2.44e+06 M⁻¹ s⁻¹. For the same binder, the Kd [17] was 0.86 nM, the koff [17] was 0.00212 s⁻¹ and the kon [17] was 2.46e+06 M⁻¹ s⁻¹. For the same binder, the Kd [18] was 0.48 nM, the koff [18] was 0.000981 s⁻¹ and the kon [18] was 2.03e+06 M⁻¹ s⁻¹.

B19: BMS3h-217-23 (other)
VL: B18 VL with F10S, A30G, T31S, Q38V, P96A, K103T
notes: as for B18
With B19 the Kd [11] was 0.78 nM, the koff [11] was 0.00127 s⁻¹ and the kon [11] was 1.64e+06 M⁻¹ s⁻¹. For the same binder, the Kd [12] was 1.59 nM, the koff [12] was 0.00262 s⁻¹ and the kon [12] was 1.64e+06 M⁻¹ s⁻¹. It also gave a Kd [13] of 1.95 nM, a koff [13] of 0.00291 s⁻¹ and a kon [13] of 1.49e+06 M⁻¹ s⁻¹. It also gave a Kd [14] of 1.22 nM, a koff [14] of 0.00186 s⁻¹ and a kon [14] of 1.53e+06 M⁻¹ s⁻¹. It also gave a Kd [15] of 1.61 nM, a koff [15] of 0.00268 s⁻¹ and a kon [15] of 1.67e+06 M⁻¹ s⁻¹. It also gave a Kd [16] of 2.21 nM, a koff [16] of 0.00287 s⁻¹ and a kon [16] of 1.3e+06 M⁻¹ s⁻¹. It also gave a Kd [17] of 1.9 nM, a koff [17] of 0.00235 s⁻¹ and a kon [17] of 1.24e+06 M⁻¹ s⁻¹. It also gave a Kd [18] of 1.52 nM, a koff [18] of 0.00163 s⁻¹ and a kon [18] of 1.07e+06 M⁻¹ s⁻¹.
